Source: patent US20170298146A1 (MODIQUEST B V, published 2017)
Non-standard residues stand in square brackets, D forms with d. No end group written: not given here. Cit = NC(=O)NCCC[C@H](N)C(=O)O

Columns and labels:
[1] = biological target: T1, huPAD2 deiminated human recombinant histone H2A (human); test: ELISA, 2 ug/well
T1 construct: also called H2A/p2
Method: (§1) CFC-1 and CFC-0 were coated at the same concentration and served as positive and negative controls, respectively, for specific anti-citrulline reactivity and as coating controls. Non-coated wells were used to test for aspecific binding of the antibodies. […] Detection of bound anti-citrulline antibodies was performed by incubating the wells with rabbit-anti-human-HRP (1:2000) for one hour at RT followed by incubation with TMB substrate. The resulting OD (y-axis) is a measure for antibody binding. H1=recombinant histone 1; H1/p2=huPAD2 recombinant histone 1; H1/p4=huPAD4 recombinant histone 1 and so forth (x-axis).

[2] = biological target: T2, huPAD4 deiminated human recombinant histone H2A (human); test: ELISA, 2 ug/well
T2 construct: also called H2A/p4; huPAD4 deiminated histone 2A
Method: as §1

[3] = biological target: T3, huPAD4 deiminated human recombinant histone H2B (human); test: ELISA, 2 ug/well
T3 construct: also called H2B/p4
Method: as §1

CFC-1 [4] = biological target: T4, CFC-1; test: ELISA, 2 ug/well
T4 construct: Positive control for anti-citrulline reactivity; also called cfc1 XG
Method: as §1

[5] = biological target: T5, human recombinant histone H2A (human); test: ELISA, 0.016 ug/well
T5 construct: Non-deiminated
Method: as §1

[6] = biological target: T1, huPAD2 deiminated human recombinant …; test: ELISA, 0.016 ug/well
Method: as §1

[7] = biological target: T2, huPAD4 deiminated human recombinant …; test: ELISA, 0.016 ug/well
Method: as §1

[8] = biological target: T6, human recombinant histone H2B (human); test: ELISA, 0.016 ug/well
T6 construct: Non-deiminated
Method: as §1

[9] = biological target: T7, huPAD2 deiminated human recombinant histone H2B (human); test: ELISA, 0.016 ug/well
T7 construct: also called H2B/p2
Method: as §1

[10] = biological target: T3, huPAD4 deiminated human recombinant …; test: ELISA, 0.016 ug/well
Method: as §1

[11] = biological target: T8, huPAD2 deiminated human recombinant histone H3 (human); test: ELISA, 0.016 ug/well
T8 construct: also called H3/p2
Method: as §1

[12] = biological target: T9, huPAD4 deiminated human recombinant histone H3 (human); test: ELISA, 0.016 ug/well
T9 construct: also called H3/p4
Method: as §1

[13] = biological target: human recombinant histone H4 (human, UniProt P62805 2-103); test: ELISA, 0.016 ug/well
Method: as §1

CFC-1 [14] = biological target: T4, CFC-1; test: ELISA, 0.016 ug/well
Method: as §1

CFC-1 [15] = biological target: T4, CFC-1; test: peptide ELISA, 2 ug/well
Method: as §1, with “Biotin and citrulline-containing peptides derived from histone 2A were immobilized on NEUTRAVIDIN®-coated 96-well ELISA plates (0.3 μg/well). CFC-1” for “CFC-1”, “controls respectively” for “controls, respectively,”, “binding.” for “binding. H1=recombinant histone 1; H1/p2=huPAD2 recombinant histone 1; H1/p4=huPAD4 recombinant histone 1 and so forth (x-axis).”
(§2) Ninety-six-well ELISA plates were coated with NEUTRAVIDIN® (0.1 μg/well) by overnight incubation at 4° C. Wells were washed five times with PBS-TWEEN®-20 (PBS-T) and blocked by a one-hour incubation with PBS-T+1% Bovine serum albumin (BSA) at room temperature (RT). After five more washes with PBS-T, wells were incubated for one hour at RT with histone-derived citrulline and biotin-containing peptides (0.3 μg/well). […] Wells were washed five times with PBS-T and incubated with rabbit-anti-human-HRP (1:2000) for one hour at RT followed by five washes with PBS-T and three wash steps with PBS. Wells were incubated for five minutes with TMB substrate before stopping the reaction with 2 M H₂SO₄. Optical density was measured by 450 nm and is a measure for the affinity of the antibodies used.

[16] = biological target: T10, Histone 2A citrulline-containing peptide 1 (human, also: biotin label); test: peptide ELISA, 2 ug/well
T10 construct: also called AAASGXGKQGGK
T10 peptide: AAASG[Cit]GKQGGK
Method: as §1, with “Biotin and citrulline-containing peptides derived from histone 2A were immobilized on NEUTRAVIDIN®-coated 96-well ELISA plates (0.3 μg/well). CFC-1” for “CFC-1”, “controls respectively” for “controls, respectively,”, “binding.” for “binding. H1=recombinant histone 1; H1/p2=huPAD2 recombinant histone 1; H1/p4=huPAD4 recombinant histone 1 and so forth (x-axis).”
as §2

[17] = biological target: T11, Histone 2A citrulline-containing peptide 9 (human, also: biotin label); test: peptide ELISA, 2 ug/well
T11 peptide: DNKKT[Cit]IIPRHL
Method: as §1, with “Biotin and citrulline-containing peptides derived from histone 2A were immobilized on NEUTRAVIDIN®-coated 96-well ELISA plates (0.3 μg/well). CFC-1” for “CFC-1”, “controls respectively” for “controls, respectively,”, “binding.” for “binding. H1=recombinant histone 1; H1/p2=huPAD2 recombinant histone 1; H1/p4=huPAD4 recombinant histone 1 and so forth (x-axis).”
as §2

[18] = biological target: T12, Histone 2A citrulline-containing peptide 10 (human, also: biotin label); test: peptide ELISA, 2 ug/well
T12 peptide: TRIIP[Cit]HLQLAI
Method: as §1, with “Biotin and citrulline-containing peptides derived from histone 2A were immobilized on NEUTRAVIDIN®-coated 96-well ELISA plates (0.3 μg/well). CFC-1” for “CFC-1”, “controls respectively” for “controls, respectively,”, “binding.” for “binding. H1=recombinant histone 1; H1/p2=huPAD2 recombinant histone 1; H1/p4=huPAD4 recombinant histone 1 and so forth (x-axis).”
as §2

CFC-1 [19] = biological target: T4, CFC-1; test: peptide ELISA, 0.08 ug/well
Method: as §1, with “Biotin and citrulline-containing peptides derived from histone 2A were immobilized on NEUTRAVIDIN®-coated 96-well ELISA plates (0.3 μg/well). CFC-1” for “CFC-1”, “controls respectively” for “controls, respectively,”, “binding.” for “binding. H1=recombinant histone 1; H1/p2=huPAD2 recombinant histone 1; H1/p4=huPAD4 recombinant histone 1 and so forth (x-axis).”
as §2

[20] = biological target: T10, Histone 2A citrulline-containing …; test: peptide ELISA, 0.08 ug/well
Method: as §1, with “Biotin and citrulline-containing peptides derived from histone 2A were immobilized on NEUTRAVIDIN®-coated 96-well ELISA plates (0.3 μg/well). CFC-1” for “CFC-1”, “controls respectively” for “controls, respectively,”, “binding.” for “binding. H1=recombinant histone 1; H1/p2=huPAD2 recombinant histone 1; H1/p4=huPAD4 recombinant histone 1 and so forth (x-axis).”
as §2

[21] = biological target: T13, Histone 2A citrulline-containing peptide 2 (human, also: biotin label); test: peptide ELISA, 0.08 ug/well
T13 peptide: AKAKS[Cit]SSRAGL
Method: as §1, with “Biotin and citrulline-containing peptides derived from histone 2A were immobilized on NEUTRAVIDIN®-coated 96-well ELISA plates (0.3 μg/well). CFC-1” for “CFC-1”, “controls respectively” for “controls, respectively,”, “binding.” for “binding. H1=recombinant histone 1; H1/p2=huPAD2 recombinant histone 1; H1/p4=huPAD4 recombinant histone 1 and so forth (x-axis).”
as §2

[22] = biological target: T14, Histone 2A citrulline-containing peptide 3 (human, also: biotin label); test: peptide ELISA, 0.08 ug/well
T14 peptide: KSRSS[Cit]AGLQFP
Method: as §1, with “Biotin and citrulline-containing peptides derived from histone 2A were immobilized on NEUTRAVIDIN®-coated 96-well ELISA plates (0.3 μg/well). CFC-1” for “CFC-1”, “controls respectively” for “controls, respectively,”, “binding.” for “binding. H1=recombinant histone 1; H1/p2=huPAD2 recombinant histone 1; H1/p4=huPAD4 recombinant histone 1 and so forth (x-axis).”
as §2

[23] = biological target: T15, Histone 2A citrulline-containing peptide 4 (human, also: biotin label); test: peptide ELISA, 0.08 ug/well
T15 peptide: QFPVG[Cit]VHRLLR
Method: as §1, with “Biotin and citrulline-containing peptides derived from histone 2A were immobilized on NEUTRAVIDIN®-coated 96-well ELISA plates (0.3 μg/well). CFC-1” for “CFC-1”, “controls respectively” for “controls, respectively,”, “binding.” for “binding. H1=recombinant histone 1; H1/p2=huPAD2 recombinant histone 1; H1/p4=huPAD4 recombinant histone 1 and so forth (x-axis).”
as §2

[24] = biological target: T16, Histone 2A citrulline-containing peptide 5 (human, also: biotin label); test: peptide ELISA, 0.08 ug/well
T16 peptide: VGRVH[Cit]LLRKGN
Method: as §1, with “Biotin and citrulline-containing peptides derived from histone 2A were immobilized on NEUTRAVIDIN®-coated 96-well ELISA plates (0.3 μg/well). CFC-1” for “CFC-1”, “controls respectively” for “controls, respectively,”, “binding.” for “binding. H1=recombinant histone 1; H1/p2=huPAD2 recombinant histone 1; H1/p4=huPAD4 recombinant histone 1 and so forth (x-axis).”
as §2

[25] = biological target: T17, Histone 2A citrulline-containing peptide 6 (human, also: biotin label); test: peptide ELISA, 0.08 ug/well
T17 peptide: VHRLL[Cit]KGNYSE
Method: as §1, with “Biotin and citrulline-containing peptides derived from histone 2A were immobilized on NEUTRAVIDIN®-coated 96-well ELISA plates (0.3 μg/well). CFC-1” for “CFC-1”, “controls respectively” for “controls, respectively,”, “binding.” for “binding. H1=recombinant histone 1; H1/p2=huPAD2 recombinant histone 1; H1/p4=huPAD4 recombinant histone 1 and so forth (x-axis).”
as §2

[26] = biological target: T18, Histone 2A citrulline-containing peptide 8 (human, also: biotin label); test: peptide ELISA, 0.08 ug/well
T18 peptide: AGNAA[Cit]DNKKTR
Method: as §1, with “Biotin and citrulline-containing peptides derived from histone 2A were immobilized on NEUTRAVIDIN®-coated 96-well ELISA plates (0.3 μg/well). CFC-1” for “CFC-1”, “controls respectively” for “controls, respectively,”, “binding.” for “binding. H1=recombinant histone 1; H1/p2=huPAD2 recombinant histone 1; H1/p4=huPAD4 recombinant histone 1 and so forth (x-axis).”
as §2

[27] = biological target: T11, Histone 2A citrulline-containing …; test: peptide ELISA, 0.08 ug/well
Method: as §1, with “Biotin and citrulline-containing peptides derived from histone 2A were immobilized on NEUTRAVIDIN®-coated 96-well ELISA plates (0.3 μg/well). CFC-1” for “CFC-1”, “controls respectively” for “controls, respectively,”, “binding.” for “binding. H1=recombinant histone 1; H1/p2=huPAD2 recombinant histone 1; H1/p4=huPAD4 recombinant histone 1 and so forth (x-axis).”
as §2

[28] = biological target: T19, Histone 2A citrulline-containing peptide 11 (human, also: biotin label); test: peptide ELISA, 0.08 ug/well
T19 peptide: LQLAI[Cit]NDEELN
Method: as §1, with “Biotin and citrulline-containing peptides derived from histone 2A were immobilized on NEUTRAVIDIN®-coated 96-well ELISA plates (0.3 μg/well). CFC-1” for “CFC-1”, “controls respectively” for “controls, respectively,”, “binding.” for “binding. H1=recombinant histone 1; H1/p2=huPAD2 recombinant histone 1; H1/p4=huPAD4 recombinant histone 1 and so forth (x-axis).”
as §2

[29] = biological target: T20, Histone 2A citrulline-containing peptide 12 (human, also: biotin label); test: peptide ELISA, 0.08 ug/well
T20 peptide: NKLLG[Cit]VTIAQG
Method: as §1, with “Biotin and citrulline-containing peptides derived from histone 2A were immobilized on NEUTRAVIDIN®-coated 96-well ELISA plates (0.3 μg/well). CFC-1” for “CFC-1”, “controls respectively” for “controls, respectively,”, “binding.” for “binding. H1=recombinant histone 1; H1/p2=huPAD2 recombinant histone 1; H1/p4=huPAD4 recombinant histone 1 and so forth (x-axis).”
as §2

B1: RhmAb2.102 (antibody, human IgG1, lambda)
heavy: not shown
light: QSVLTQPPSMSAAPGQKVTISCSGSSSNIGNNYVSWYQQVPGTAPKLLIYDDNKRPSGIPGRFSGSKSATSATLGITGLQAGDEADYYCGSWDDNLSVVLFGGGTKLTVLGQPKAAPSVTLFPPSSEELQANKATLVCLISDFYPGAVTVAWKADSSPVKAGVETTTPSKQSNNKYAASSYLSLTPEQWKSHRSYSCQVTHEGSTVEKTVAPTECS
notes: Human IgG1 lambda; also called Rhm2.102
OD [1]: 3.18 OD
OD [2]: 3.13 OD
OD [3]: 0.069 OD
OD (CFC-1 [4]): 3.38 OD
OD [5]: 0.057 OD
OD [6]: 0.628 OD
OD [7]: 0.426 OD
OD [8]: 0.065 OD
OD [9]: 0.052 OD
OD [10]: 0.052 OD
OD [11]: 0.155 OD
OD [12]: 0.076 OD
OD [13]: 0.061 OD
OD (CFC-1 [14]): 0.702 OD
OD (CFC-1 [15]): 3.21 OD
OD [16]: 3.05 OD
OD [17]: 0.063 OD
OD [18]: 0.07 OD
OD (CFC-1 [19]): 2.66 OD
OD [20]: 2.04 OD
OD [21]: 0.086 OD
OD [22]: 0.091 OD
OD [23]: 0.192 OD
OD [24]: 0.066 OD
OD [25]: 0.123 OD
OD [26]: 0.06 OD
OD [27]: 0.06 OD
OD [28]: 0.064 OD
OD [29]: 0.06 OD
